This note sets out measurements from US20240043534A1.

Experiment [1] concerns the target Fab^H (Herceptin Fab scaffold with wt human kappa Lc; Lc aa 123-127 EQLKS). Description: SPR (preliminary results), Protein G variant against Fab scaffold.
The target in experiment [2] is “Λ” Fab scaffold (4D5 scaffold with SEELQANK in the Lc region). The experiment is described as above.
Experiment [3] has as its target yeast histone chaperone protein Asf1 (Anti-silencing factor 1) (yeast) (UniProt P32447). Description: cell-based or functional assay.
The target of experiment [4] is N-terminal methyltransferase domain of the Zika virus bifunctional NS5 enzyme (MT ZIKV) (Zika virus). Description: cell-based or functional assay.
Experiment [5] has the same target. Description: SPR, Fab as analyte on His-tag-immobilized antigen. A general note: Surface plasmon resonance follows binding to a sensor surface in real time, without labels.
In experiment [6] the target is Fab^H(Her2)-linker-GA1 fusion (13 residue linker). Description: cell-based or functional assay.
Experiment [7] addresses Fab with CK (kappa) light chain constant domain. Description: ELISA.
The target of experiment [8] is FabHS (human 4D5 scaffold with residues PEELRTNK replacing amino acids corresponding to 15-22 of SEQ ID NO:1). Description: protein ELISA.
FabHS (human 4D5 scaffold with residues PEELRTNK replacing amino acids corresponding to 15-22 of SEQ ID NO:1), sequence (light, as listed by the source): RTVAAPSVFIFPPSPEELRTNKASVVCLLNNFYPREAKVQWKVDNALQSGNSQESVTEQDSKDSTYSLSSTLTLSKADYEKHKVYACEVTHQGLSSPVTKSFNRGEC

“Λ” Fab scaffold (4D5 scaffold with SEELQANK in the Lc region), sequence (light, as listed by the source): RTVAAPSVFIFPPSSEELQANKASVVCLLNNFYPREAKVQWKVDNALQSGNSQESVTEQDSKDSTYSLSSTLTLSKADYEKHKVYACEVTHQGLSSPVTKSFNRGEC
yeast histone chaperone protein Asf1 (Anti-silencing factor 1) (yeast), sequence (P32447 1-158 limits assumed): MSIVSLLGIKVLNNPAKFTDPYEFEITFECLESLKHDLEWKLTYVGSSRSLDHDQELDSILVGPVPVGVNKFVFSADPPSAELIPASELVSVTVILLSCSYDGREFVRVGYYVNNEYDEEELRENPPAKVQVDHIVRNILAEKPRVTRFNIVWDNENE

B1: Protein G D (designed binder)
chain: TPAVTTYKLVINGRTLSGYTTTTAVDAATAEKVFKQIDMVSSVDGEWTYDDATKTFTVTEKPEKL
One may read the Kd as the concentration at which binding is half-saturated. Turning to B1, the Kd in experiment [1] amounted to 15 nM; in experiment [2], 50 nM.

B2: E11 Asf1 LRT-Fab (Fab, V domains shown)
VH: EVQLVESGGGLVQPGGSLRLSCAASGFNISYSSIHWVRQAPGKGLEWVASISSYYGSTYYADSVKGRFTISADTSKNTAYLQMNSLRAEDTAVYYCARSRGQASWDYWGQGTLVTVSS
VL: DIQMTQSPSSLSASVGDRVTITCRASQSVSSAVAWYQQKPGKAPKLLIYSASSLYSGVPSRFSGSRSGTDFTLTISSLQPEDFATYYCQQSSDDPITFGQGTKVEIKR
In experiment [3], B2 gave a β-lactamase (BL) split-enzyme complementation, fluorescent signal of less than 10 fold.

B3: Z2G6 ZIKV LRT-Fab (Fab, V domains shown)
VH: EVQLVESGGGLVQPGGSLRLSCAASGFNVYYYYIHWVRQAPGKGLEWVASIYSYSGYTYYADSVKGRFTISADTSKNTAYLQMNSLRAEDTAVYYCAREGVWWEDEFYPGLDYWGQGTLVTVSS
VL: DIQMTQSPSSLSASVGDRVTITCRASQSVSSAVAWYQQKPGKAPKLLIYSASSLYSGVPSRFSGSRSGTDFTLTISSLQPEDFATYYCQQSWSSLFTFGQGTKVEIKR
As a reminder, the koff is the rate constant with which the complex falls apart. Read a high koff as fast dissociation. For the molecule B3, the β-lactamase (BL) split-enzyme complementation, limit of antigen detection in experiment [4] was determined as 30 nM. In experiment [5], this molecule came in with a Kd of 1.7 nM and a koff of 9.2e-05 s⁻¹.

B4: Z2C4 ZIKV LRT-Fab (Fab, V domains shown)
VH: EVQLVESGGGLVQPGGSLRLSCAASGFNVYYSSIHWVRQAPGKGLEWVAYIYPSSGSTYYADSVKGRFTISADTSKNTAYLQMNSLRAEDTAVYYCARSWSPYGMDYWGQGTLVTVSS
VL: DIQMTQSPSSLSASVGDRVTITCRASQSVSSAVAWYQQKPGKAPKLLIYSASSLYSGVPSRFSGSRSGTDFTLTISSLQPEDFATYYCQQWYDSLITFGQGTKVEIKR
In turn, B4 yielded a β-lactamase (BL) split-enzyme complementation, limit of antigen detection in experiment [4] of 30 nM. The same molecule gave a Kd in experiment [5] of 0.7 nM.

B5: hOKT3(S)_LRT (Fab, V domains shown)
VH: EVQLVESGGGLVQPGGSLRLSCAASGYTFTRYTMHWVRQAPGKGLEWIGYINPSRGYTNYNQKFKDKATISTDKSKNTAYLQMNSLRAEDTAVYYCARYYDDHYSLDYWGQGTLVTVSS
VL: DIQMTQSPSSLSASVGDRVTITCSASSSVSYMNWYQQKPGKAPKRWIYDTSKLASGVPSRFSGSGSGTDYTLTISSLQPEDFATYYCQQWSSNPFTFGQGTKVEIKR
As to B5, the redirected tumor-cell killing (LDH release), PBMC-SKBR3 co-cultures, bi-Fab at 50 nM in experiment [6] was less than 70%.

B6: Protein-G-A1 (SEQ ID NO:27) (designed binder)
chain: MKGETTTEAVDAATAEKVFKQYANDNGVDGEWTYDDATKTFTVTEKPEVIDASELTPAVTTYKLVINGRTLSGYTTTTAVDAATAEKVFKQYAYVHEVDGEWTYDDATKTFTVTEKPEVIDASELTPAVTTYKLVINGRTLSGETTTKAVDAETAEKAFKQYANDNGVDGVWTYDDATKTFTVTE
On to B6, for which the EC50 ratio (preference for CK over Cλ) in experiment [7] is more than 5000.

B7: Protein-G-HS C6 (designed binder)
chain: MKGETTTEAVDAATAEKVFKQYANDNGVDGEWTYDDATKTFTVTEKPEVIDASELTPAVTTYKLVINGKTLKGETTTEAVDAATAEKVFKQYANDNGVDGEWTYDDATKTFTVTEKPEVIDASELTPAVTTYKLVINGRTLSGETTTKAVDAETAEKAFKQYSRPHVVDGVWTYDDATKTFTVTE
The IC50 is the concentration at which inhibition is half-maximal. With B7, the 50% inhibitory concentration (IC50) in experiment [8] was found to be 8 nM.

B8: Protein-G-HS C7 (designed binder)
chain: MKGETTTEAVDAATAEKVFKQYANDNGVDGEWTYDDATKTFTVTEKPEVIDASELTPAVTTYKLVINGKTLKGETTTEAVDAATAEKVFKQYANDNGVDGEWTYDDATKTFTVTEKPEVIDASELTPAVTTYKLVINGRTLSGETTTKAVDAETAEKAFKQYAYGAVVDGVWTYDDATKTFTVTE
Take B8: the IC50 in experiment [8] was found to be 100 nM.
